Results: IntAct's records for PubMed 31515488

B1: TBC1 domain family member 7 (Homo sapiens), Q9P0N9 (parent)
chain: MTEDSQRNFRSVYYEKVGFRGVEEKKSLEILLKDDRLDTEKLCTFSQRFPLPSMYRALVWKVLLGILPPHHESHAKVMMYRKEQYLDVLHALKVVRFVSDATPQAEVYLRMYQLESGKLPRSPSFPLEPDDEVFLAIAKAMEEMVEDSVDCYWITRRFVNQLNTKYRDSLPQLPKAFEQYLNLEDGRLLTHLRMCSAAPKLPYDLWFKRCFAGCLPESSLQRVWDKVVSGSCKILVFVAVEILLTFKIKVMALNSAEKITKFLENIPQDSSDAIVSKAIDLWHKHCGTPVHSS
partner: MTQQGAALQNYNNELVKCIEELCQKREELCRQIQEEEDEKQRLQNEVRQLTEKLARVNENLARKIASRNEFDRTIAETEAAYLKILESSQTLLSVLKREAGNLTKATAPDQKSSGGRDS
B2: Zinc finger protein 511 (Homo sapiens), Q8NB15 (parent)
chain: MQLPPALCARLAAGPGAAEPLPVERDPAAGAAPFRFVARPVRFPREHQFFEDGDVQRHLYLQDVIMQVADVPEKPRVPAFACQVAGCCQVFDALDDYEHHYHTLHGNVCSFCKRAFPSGHLLDAHILEWHDSLFQILSERQDMYQCLVEGCTEKFKTSRDRKDHMVRMHLYPADFRFDKPKKSRSPASAEAPGDSGERSEGEAMEICSEPVAASPAPAGERRIYRHRIPSTICFGQGAARGFKSNKKKTKQC
partner: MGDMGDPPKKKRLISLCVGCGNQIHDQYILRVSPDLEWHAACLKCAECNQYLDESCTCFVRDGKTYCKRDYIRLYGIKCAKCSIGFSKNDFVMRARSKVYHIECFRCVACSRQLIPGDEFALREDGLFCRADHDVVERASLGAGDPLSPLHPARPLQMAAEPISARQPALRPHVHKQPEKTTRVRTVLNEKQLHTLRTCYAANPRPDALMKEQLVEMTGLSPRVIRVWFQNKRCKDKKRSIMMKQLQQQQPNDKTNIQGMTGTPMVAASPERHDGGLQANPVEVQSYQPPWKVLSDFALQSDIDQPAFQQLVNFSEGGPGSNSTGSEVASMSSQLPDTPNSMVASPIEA
B3: Kelch-like protein 2 (Homo sapiens), O95198 (parent)
chain: METPPLPPACTKQGHQKPLDSKDDNTEKHCPVTVNPWHMKKAFKVMNELRSQNLLCDVTIVAEDMEISAHRVVLAACSPYFHAMFTGEMSESRAKRVRIKEVDGWTLRMLIDYVYTAEIQVTEENVQVLLPAAGLLQLQDVKKTCCEFLESQLHPVNCLGIRAFADMHACTDLLNKANTYAEQHFADVVLSEEFLNLGIEQVCSLISSDKLTISSEEKVFEAVIAWVNHDKDVRQEFMARLMEHVRLPLLPREYLVQRVEEEALVKNSSACKDYLIEAMKYHLLPTEQRILMKSVRTRLRTPMNLPKLMVVVGGQAPKAIRSVECYDFKEERWHQVAELPSRRCRAGMVYMAGLVFAVGGFNGSLRVRTVDSYDPVKDQWTSVANMRDRRSTLGAAVLNGLLYAVGGFDGSTGLSSVEAYNIKSNEWFHVAPMNTRRSSVGVGVVGGLLYAVGGYDGASRQCLSTVECYNATTNEWTYIAEMSTRRSGAGVGVLNNLLYAVGGHDGPLVRKSVEVYDPTTNAWRQVADMNMCRRNAGVCAVNGLLYVVGGDDGSCNLASVEYYNPTTDKWTVVSSCMSTGRSYAGVTVIDKPL
partner: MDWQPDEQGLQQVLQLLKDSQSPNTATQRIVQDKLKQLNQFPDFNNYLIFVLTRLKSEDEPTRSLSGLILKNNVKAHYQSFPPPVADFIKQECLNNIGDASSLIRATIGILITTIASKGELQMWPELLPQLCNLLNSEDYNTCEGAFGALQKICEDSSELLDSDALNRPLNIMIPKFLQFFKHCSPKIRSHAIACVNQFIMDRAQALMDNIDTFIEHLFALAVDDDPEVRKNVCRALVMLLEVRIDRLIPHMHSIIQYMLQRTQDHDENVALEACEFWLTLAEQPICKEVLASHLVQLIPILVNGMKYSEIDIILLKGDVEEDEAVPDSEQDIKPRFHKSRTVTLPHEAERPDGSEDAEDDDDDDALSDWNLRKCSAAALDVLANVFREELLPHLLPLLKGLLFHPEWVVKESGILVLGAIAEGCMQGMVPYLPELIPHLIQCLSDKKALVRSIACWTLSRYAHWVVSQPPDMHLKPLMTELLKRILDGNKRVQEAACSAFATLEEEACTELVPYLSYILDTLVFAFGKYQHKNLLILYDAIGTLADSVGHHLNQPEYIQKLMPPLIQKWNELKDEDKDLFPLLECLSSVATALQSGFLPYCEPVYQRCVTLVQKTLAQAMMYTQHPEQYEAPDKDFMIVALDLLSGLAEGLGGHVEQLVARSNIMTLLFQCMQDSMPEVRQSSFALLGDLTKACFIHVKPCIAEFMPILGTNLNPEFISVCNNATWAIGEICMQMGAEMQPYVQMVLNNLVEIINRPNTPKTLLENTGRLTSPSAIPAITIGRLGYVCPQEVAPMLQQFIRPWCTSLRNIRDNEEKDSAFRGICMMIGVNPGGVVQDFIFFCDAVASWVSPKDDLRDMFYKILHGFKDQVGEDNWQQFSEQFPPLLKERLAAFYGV
B4: Beta-taxilin (Homo sapiens), Q8N3L3 (parent)
chain: MEANHSEQLSAERQSTPPGDSSSLPSHNGLEKEDGQDSPTPVQPPEKEASVHPDISEELNRQLEDIINTYGSAASTAGKEGSARASEQPENAESPDNEDGDCEETTEEAGREPVASGEPPTVKEPVSNKEQKLEKKILKGLGKEANLLMQNLNKLQTPEEKFDFLFKKYAELLDEHRTEQKKLKLLQKKQVQIQKEKDQLQGEHSRAILARSKLESLCRELQRHNKTLKEEALQRAREEEEKRKEITSHFQSTLTDIQGQIEQQSERNMKLCQENTELAEKLKSIIDQYELREEHLDKIFKHRELQQKLVDAKLEQAQEMMKEAEERHKREKEYLLNQAAEWKLQAKVLKEQETVLQAQLTLYSGRFEEFQSTLTKSNEVFATFKQEMDKTTKKMKKLEKDTATWKARFENCNKALLDMIEEKALRAKEYECFVMKIGRLENLCRALQEERNELHKKIRDAEISEKDDQSQHNSDEEPESNVSVDQEIDAEEVNSVQTAVKNLATAFMIIHHPESTPHQSKETQPEIGSSQESADAALKEPEQPPLIPSRDSESPLPPLTPQAEAEGGSDAEPPSKASNSPAGLGAETQCEGLPVGAQADQASWKPEAEASGQAPQAPTEASLQKMEADVPAPACAAEEHVAAMVPACEPSRQPPRAAAEELPVGASAGPQPRNVADTNLEGVD
B5: Syntaxin-binding protein 4 (Homo sapiens), Q6ZWJ1 (parent)
chain: MNKNTSTVVSPSLLEKDPAFQMITIAKETGLGLKVLGGINRNEGPLVYIQEIIPGGDCYKDGRLKPGDQLVSVNKESMIGVSFEEAKSIITGAKLRLESAWEIAFIRQKSDNIQPENLSCTSLIEASGEYGPQASTLSLFSSPPEILIPKTSSTPKTNNDILSSCEIKTGYNKTVQIPITSENSTVGLSNTDVASAWTENYGLQEKISLNPSVRFKAEKLEMALNYLGIQPTKEQHQALRQQVQADSKGTVSFGDFVQVARNLFCLQLDEVNVGAHEISNILDSQLLPCDSSEADEMERLKCERDDALKEVNTLKEKLLESDKQRKQLTEELQNVKQEAKAVVEETRALRSRIHLAEAAQRQAHGMEMDYEEVIRLLEAKITELKAQLADYSDQNKESVQDLKKRIMVLDCQLRKSEMARKTFEASTEKLLHFVEAIQEVFSDNSTPLSNLSERRAVLASQTSLTPLGRNGRSIPATLALESKELVKSVRALLDMDCLPYGWEEAYTADGIKYFINHVTQTTSWIHPVMSVLNLSRSEENEEDCSRELPNQKS
partner: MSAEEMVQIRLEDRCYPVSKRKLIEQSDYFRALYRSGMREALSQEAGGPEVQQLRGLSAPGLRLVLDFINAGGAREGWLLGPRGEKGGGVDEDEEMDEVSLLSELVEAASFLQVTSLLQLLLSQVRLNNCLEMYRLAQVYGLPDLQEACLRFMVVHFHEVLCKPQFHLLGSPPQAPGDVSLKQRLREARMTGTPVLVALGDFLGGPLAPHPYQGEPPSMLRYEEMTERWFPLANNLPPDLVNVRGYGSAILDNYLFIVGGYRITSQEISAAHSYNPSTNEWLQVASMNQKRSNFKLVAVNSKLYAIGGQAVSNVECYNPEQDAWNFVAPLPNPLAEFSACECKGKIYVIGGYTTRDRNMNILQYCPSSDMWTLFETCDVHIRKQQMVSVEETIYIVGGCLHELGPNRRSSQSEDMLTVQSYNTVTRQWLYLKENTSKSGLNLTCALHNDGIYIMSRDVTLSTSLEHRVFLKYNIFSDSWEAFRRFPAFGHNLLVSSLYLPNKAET

Variants of: B1
Conditions: with ssna1_human SSNA1, O43805

Variant	effect of a mutation on the interaction
MTEDSQRNFRSVYYEKVGFRGVEEKKSLEILLKDDRLDTEKLCTFSQRFPLPSMYRALVWKVLLGIWPPHHESHAKVMMYRKEQYLDVLHALKVVRFVSDATPQAEVYLRMYQLESGKLPRSPSFPLEPDDEVFLAIAKAMEEMVEDSVDCYWITRRFVNQLNTKYRDSLPQLPKAFEQYLNLEDGRLLTHLRMCSAAPKLPYDLWFKRCFAGCLPESSLQRVWDKVVSGSCKILVFVAVEILLTFKIKVMALNSAEKITKFLENIPQDSSDAIVSKAIDLWHKHCGTPVHSS [L67W]	disrupting interaction strength

Variants of: B2
Conditions: with isl1_human ISL1, P61371

Variant	effect of a mutation on the interaction
MQLPPALCARLAAGPGAAEPLPVERDPAAGAAPFRFVARPVRFPREHQFFEDGDVQRHLYLQDVIMQVADVPEKPRVPAFACQVAGCCQVFDALDDYEHHYHTLHGNVCSFCKRAFPSGHLLNAHILEWHDSLFQILSERQDMYQCLVEGCTEKFKTSRDRKDHMVRMHLYPADFRFDKPKKSRSPASAEAPGDSGERSEGEAMEICSEPVAASPAPAGERRIYRHRIPSTICFGQGAARGFKSNKKKTKQC [D123N]	with no effect
MQLPPALCARLAAGPGAAEPLPVERDPAAGAAPFRFVARPVRFPREHQFFEDGDVQRHLYLQDVIMQVADVPEKPRVPAFACQVAGCCQVFDALDDYEHHYHTLHGNVCSFCKRAFPSGHLLDAHILEWHDSLFQILSERQDMYQCLVEGCTEKFKTSRDRKDHMVRMHLYPADFRFDKPKKSRSPASAEAPGDNGERSEGEAMEICSEPVAASPAPAGERRIYRHRIPSTICFGQGAARGFKSNKKKTKQC [S195N]	with no effect

Variants of: B3
Conditions: with tnpo2_human TNPO2, O14787

Variant	effect of a mutation on the interaction
METPPLPPACTKQGHQKPLDSKDDNTEKHCPVTVNPWHMKKAFKVMNELRSQNLLCDVTIVAEDMEIAAHRVVLAACSPYFHAMFTGEMSESRAKRVRIKEVDGWTLRMLIDYVYTAEIQVTEENVQVLLPAAGLLQLQDVKKTCCEFLESQLHPVNCLGIRAFADMHACTDLLNKANTYAEQHFADVVLSEEFLNLGIEQVCSLISSDKLTISSEEKVFEAVIAWVNHDKDVRQEFMARLMEHVRLPLLPREYLVQRVEEEALVKNSSACKDYLIEAMKYHLLPTEQRILMKSVRTRLRTPMNLPKLMVVVGGQAPKAIRSVECYDFKEERWHQVAELPSRRCRAGMVYMAGLVFAVGGFNGSLRVRTVDSYDPVKDQWTSVANMRDRRSTLGAAVLNGLLYAVGGFDGSTGLSSVEAYNIKSNEWFHVAPMNTRRSSVGVGVVGGLLYAVGGYDGASRQCLSTVECYNATTNEWTYIAEMSTRRSGAGVGVLNNLLYAVGGHDGPLVRKSVEVYDPTTNAWRQVADMNMCRRNAGVCAVNGLLYVVGGDDGSCNLASVEYYNPTTDKWTVVSSCMSTGRSYAGVTVIDKPL [S68A]	with no effect
METPPLPPACTKQGHQKPLDSKDDNTEKHCPVTVNPWHMKKAFKVMNELRSQNLLCDVTIVAEDMEISAHRVVLAACSPYFHAMFTGEMSESRAKRVRIKEVDGWTLRMLIDYVYTAEIQVTEENVQVLLPAAGLLQLQDVKKTCCEFLESQLHPVNCLGIRAFADMHACTDLLNKANTYAEQHFADVVLSEEFLNLGIEQVCSLISSDKLTISSEEKVFEAVIAWVNHDKDVRQEFMARLMEHVRLPLLPREYLVQRVEEEALVKNSSACKDYLIEAMKYHLLPTEQRILMKSVRTRLRTPMNLPKLMVVVGGQAPKAIRSVECYDFKEERWHQVAELPSRRCRAGMVYMAGLVFAVGGFNGSLRVRTVDSYDPVKDQWTSVANMRDRRSTLGAAVLNGLLYAVGGFDGSTGLSSVEAYNIKSNEWFHVAPMNTRRSSVGVGVVGGLLYAVGGYDGASRQCLSTVECYNATTNEWTYITEMSTRRSGAGVGVLNNLLYAVGGHDGPLVRKSVEVYDPTTNAWRQVADMNMCRRNAGVCAVNGLLYVVGGDDGSCNLASVEYYNPTTDKWTVVSSCMSTGRSYAGVTVIDKPL [A480T]	with no effect

Variants of: B4
Conditions: with cep70_human CEP70, Q8NHQ1
cep70_human CEP70, Q8NHQ1, sequence (Q8NHQ1 whole entry): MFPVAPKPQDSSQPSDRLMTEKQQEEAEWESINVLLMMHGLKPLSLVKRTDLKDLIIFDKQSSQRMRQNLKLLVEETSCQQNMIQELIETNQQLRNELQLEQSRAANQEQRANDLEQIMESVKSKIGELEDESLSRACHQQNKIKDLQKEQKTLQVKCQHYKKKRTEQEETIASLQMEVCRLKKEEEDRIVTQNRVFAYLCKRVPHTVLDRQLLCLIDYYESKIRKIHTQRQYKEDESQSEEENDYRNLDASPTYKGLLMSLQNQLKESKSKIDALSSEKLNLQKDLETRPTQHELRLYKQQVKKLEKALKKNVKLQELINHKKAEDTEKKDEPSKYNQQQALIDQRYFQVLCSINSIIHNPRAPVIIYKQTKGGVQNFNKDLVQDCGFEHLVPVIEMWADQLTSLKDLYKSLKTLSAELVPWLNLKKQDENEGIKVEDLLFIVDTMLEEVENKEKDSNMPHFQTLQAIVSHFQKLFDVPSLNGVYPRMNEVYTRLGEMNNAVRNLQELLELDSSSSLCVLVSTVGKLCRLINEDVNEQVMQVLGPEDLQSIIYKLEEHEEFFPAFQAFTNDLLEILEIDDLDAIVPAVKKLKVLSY

Variant	effect of a mutation on the interaction
T361A	with no effect
T523I	with no effect

Variants of: B4
Conditions: with exoc5_human EXOC5, O00471
exoc5_human EXOC5, O00471, sequence (O00471 whole entry): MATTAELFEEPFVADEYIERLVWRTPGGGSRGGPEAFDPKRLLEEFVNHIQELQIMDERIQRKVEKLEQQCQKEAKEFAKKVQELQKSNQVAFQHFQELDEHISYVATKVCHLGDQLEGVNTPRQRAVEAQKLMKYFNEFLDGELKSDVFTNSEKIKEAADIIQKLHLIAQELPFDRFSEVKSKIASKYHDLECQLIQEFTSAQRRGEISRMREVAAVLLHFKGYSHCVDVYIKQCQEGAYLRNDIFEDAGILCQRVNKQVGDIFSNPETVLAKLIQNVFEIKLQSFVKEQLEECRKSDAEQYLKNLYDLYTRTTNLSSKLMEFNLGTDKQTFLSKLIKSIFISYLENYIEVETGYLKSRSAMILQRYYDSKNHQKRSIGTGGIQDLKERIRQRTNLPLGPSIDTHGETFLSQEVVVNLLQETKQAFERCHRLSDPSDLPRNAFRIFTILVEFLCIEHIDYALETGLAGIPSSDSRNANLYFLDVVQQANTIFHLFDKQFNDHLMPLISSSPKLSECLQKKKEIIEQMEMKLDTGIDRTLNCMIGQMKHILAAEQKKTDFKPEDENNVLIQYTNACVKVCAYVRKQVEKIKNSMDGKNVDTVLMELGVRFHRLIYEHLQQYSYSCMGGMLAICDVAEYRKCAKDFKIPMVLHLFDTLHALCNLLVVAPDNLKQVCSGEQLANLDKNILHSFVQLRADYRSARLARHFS

Variant	effect of a mutation on the interaction
I527T	with no effect

Variants of: B4
Conditions: with mbip1_human MBIP

Variant	effect of a mutation on the interaction
I527T	with no effect

Variants of: B5
Conditions: with klh42_human KLHL42, Q9P2K6

Variant	effect of a mutation on the interaction
MNKNTSTVVSPSLLEKDPAFQMITIAKETGLGLKVLGGINRNEGPLVYIQEIIPGGDCYKDGRLKPGDQLVSVNKESMIGVSFEEAKSIITGAKLRLESAWEIAFIRQKSDNIQPENLSRTSLIEASGEYGPQASTLSLFSSPPEILIPKTSSTPKTNNDILSSCEIKTGYNKTVQIPITSENSTVGLSNTDVASAWTENYGLQEKISLNPSVRFKAEKLEMALNYLGIQPTKEQHQALRQQVQADSKGTVSFGDFVQVARNLFCLQLDEVNVGAHEISNILDSQLLPCDSSEADEMERLKCERDDALKEVNTLKEKLLESDKQRKQLTEELQNVKQEAKAVVEETRALRSRIHLAEAAQRQAHGMEMDYEEVIRLLEAKITELKAQLADYSDQNKESVQDLKKRIMVLDCQLRKSEMARKTFEASTEKLLHFVEAIQEVFSDNSTPLSNLSERRAVLASQTSLTPLGRNGRSIPATLALESKELVKSVRALLDMDCLPYGWEEAYTADGIKYFINHVTQTTSWIHPVMSVLNLSRSEENEEDCSRELPNQKS [C120R]	with no effect
